B1: 2-13: anti-FAM19A5 antibody; VH SEQ ID NO: 35, VL SEQ ID NO: 39 (antibody, V domains shown)
VH: AVTLDESGGGLQTPGGALSLVCKASGFTFSSHGMFWVRQTPGKGLEYVAEITNDGSGTNYGSAVKGRATISRDNGQSTVRLQLNNLRAEDTGTYFCARSTYECPGGFSCWGDTGQIDAWGHGTEVIVSS
VL: ALTQPSSVSANPGETVKITCSGGSYSYGWFQQKSPGSALVTVIYWDDERPSDIPSRFSGALSGSTNTLTITGVQADDEAVYFCGTEDISGTAGVFGAGTTLTVL
modifications: 2-13 VH; 2-13 VL
B2: 1-30: anti-FAM19A5 antibody, de-immunized variant of 3-2; VH SEQ ID NO: 235, VL SEQ ID NO: 240 (antibody, V domains shown)
VH: AVTLDESGGGLQTPGGALRLSCKASGFDFESFNMFWVRQAPGKGLEYVSQISSSEEDENYAPAVKGRATISRDNGQSTLYLQMNSLRAEDTGTYYCAKSSYDCPYGHCSSGVDSAGEIDAWGHGTEVIVSS
VL: ALTQPSSVSANPGETVKITCSGGGSEEEQYYYGWYQQKPGSAPVTLIYQDEERPSDIPSRFSGSTSGSTATLTITGVQAGDEADYYCGSWDSEDEDHFGAGTTLTVL
modifications: Low-PI VH, 1-30 VH, 1-17 VH, 1-32 VH, 4-11 VH, 6-10 VH; 1-30 VL

What was measured:
FAM19A5 mutants M1 to M8 [1] = target: T1, FAM19A5 mutants M1 to M8 (Homo sapiens, UniProt Q7Z5A7); assay: Epitope mapping ELISA with FAM19A5 mutants M1-M8; assay type: binding
T1 construct: made in house; host or cells: phage display with helper phage
Protocol: (§1) To further characterize the binding epitopes of the anti-FAM19A5 antibodies disclosed in the present disclosure, the amino acid sequences for the different FAM19 family members (i.e., FAM19A1-5) were aligned. […] The amino acid sequences of these regions were replaced with the consensus sequence of the corresponding regions for the FAM19A1-4 proteins. See Table 13 (the mutated amino acid residues are bolded and underlined).
(§2) The mutant FAM19A5-expressing phages were prepared as follows. To prepare the media for phage culture, 55.6 ml of 2M Glucose (D-(+)-Glucose, Sigma), 5 mL of 1M MgCl2 (Magnesium chloride, Junsei) 1 mL of 34 mg/mL chloramphenicol (Sigma) were added to 2×YT media. Colonies obtained through mono-phage ELISA were selected and placed in 5 mL of prepared media (2×YT-GMC) to be cultured for 16 hours at 37° C. with shaking incubator (VS-8480, Vision). 100 μL of each culture was transferred to 10 mL 2×YT-GMC individually which were cultured at 37° C. in the incubator until detection value at O.D. 600 nm reached 0.5. Once detection value has reached 0.5 at O.D. 600 nm, 5 mL of each culture were obtained as samples to be infected. Following sample preparation, 50 μL of […] was added to individual samples then incubated at 37° C. without shaking for 30 minutes and with shaking for additional 30 minutes. Individual cultures were centrifuged for 15 minutes at 3,850 rpm using Micro centrifuge (Micro12, Hanil). The supernatants of centrifuged cultures were removed to be kept separate and replaced with 5 mL of 2×YT media containing 1 mL of IM IPTG (AG Scientific), 5 mL of 1M MgCl2.1 ml of 70 μg/μL kanamycin (Biopure) and 1 mL of Chloramphenicol. The resulting pellets were dispersed thoroughly in newly added media followed by incubation at 30° C. for 16 hours with stirring.

FAM19A5 mutants M1 to M8 [2] = target: T2, FAM19A5 mutants M1 to M8 (Homo sapiens, UniProt Q7Z5A7, A66V/A69S/K72P/R67K/R71F); assay: Epitope mapping ELISA with FAM19A5 mutants M1-M8; assay type: binding
T2 construct: made in house; host or cells: phage display with helper phage
Protocol: as §1, §2

FAM19A5 mutants M1 to M8 [3] = assay: Epitope mapping ELISA with FAM19A5 mutants M1-M8; assay type: binding
Protocol: as §1, §2

aged mice = assay: Age-related hearing loss in aged mice; assay type: in vivo, mouse; settings: for ABR threshold vs control animals: 30 mg/kg i.v. weekly for eight weeks
Protocol: FIGS. 17A, 17B, 17C, and 17D show the therapeutic effect of FAM19A5 antagonists (1-30) on auditory brainstem response (ABR) threshold in an aged mouse model. FIG. 17A provides a schematic of the experimental design. As shown, anti-FAM19A5 antibody (1-30) or control human IgG antibody was administered to the mice (1-year old) intravenously once a week (30 mg/kg per dose) for a total of eight administrations. ABR (i.e., hearing test) was measured both prior to the initial administration of the antibodies and then at one and two months after administration. FIG. 17B provides the results before injection. FIG. 17C provides the results at one month post administration. FIG. 17D provides the results at two months post administration. In each of FIGS. 16B-16D, ABR threshold was measured at a frequency ranging from 4 kHz to 64 kHz.
FIGS. 18A, 18B, and 18C show the therapeutic effect of FAM19A5 antagonists (1-30) as comparison of wave I amplitude profile in an aged mouse model. The mice were treated as shown and described in FIG. 17A. FIG. 18A provides the results before injection. FIG. 18B provides the results at one month post injection. FIG. 18C provides the results at two months post injection. Tone bursts were measured across 0 and 90 dB.
Next, to assess whether the FAM19A5 antagonists provided herein can also treat age-related hearing loss, aged mice (e.g., about 6 months to 1 year in age) were used. […] Then, various hearing parameters (e.g., ABR threshold, DPOAE amplitude, and ABR waveform analysis) were assessed in the animals at one and two months after initial administration.

[4] = system: mouse primary spiral ganglion neurons; assay: Reversal of FAM19A5-induced inhibition of neurite outgrowth; assay type: cell-based; settings: 10 μM FAM19A5 protein co-treated with 100 nM antibody, 3 DIV
Protocol: Sprial ganglion neuron were cultured in culture media consisting of high-glucose (4.5 mg/mL) DMEM, 0.1 mg/ml penicillin, 0.1 mg/mL streptomycin, N2 supplement, and 10 µg/mL insulin and was designated here as “5K” because in this media, [K+]=5.4 mM. A depolarizing media, designated as “30K,” in which Na was replaced with equimolar K to raise [K] to 30 mM while maintaining osmolarity was also used.
Dissociated spiral ganglion cell cultures were prepared from postnatal day 4-5 (P4-5) cochleae and maintained using a procedure modified from the methods described by Bok et al., J Neurosci 23 (3): 777-87 (2003), which is incorporated herein by reference in its entirety. […]
Neurite outgrowth was quantified by measuring the total length of neurites per neuron. Neurons were stained with NF200 at either 2 or 3 DIV, and neurite lengths were measured using the Fiji (Image J). Individual neurons were manually selected, and neurite lengths were determined using the Simple Neurite Tracer plugin.
Briefly, mouse primary spiral ganglion neurons (cultured and processed as described in Example 11) were treated with a FAM19A5 protein (10 μM) alone or in combination with an anti-FAM19A5 antibody (1-30) (100 nM) at 0 DIV (day in vitro). […] Then, at 3 DIV, the neurons were stained for neurofilament protein (NF200) expression and the average neurite length quantified.

T1 sequence (Q7Z5A7 with tags, fused parts or gaps isoform Q7Z5A7-2, change not shown): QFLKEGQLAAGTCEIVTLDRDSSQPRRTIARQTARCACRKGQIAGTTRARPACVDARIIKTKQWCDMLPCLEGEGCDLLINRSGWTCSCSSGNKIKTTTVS
T2 sequence (Q7Z5A7 26-125 isoform Q7Z5A7-2 A59V/R60K/A62S/R64F/K65P): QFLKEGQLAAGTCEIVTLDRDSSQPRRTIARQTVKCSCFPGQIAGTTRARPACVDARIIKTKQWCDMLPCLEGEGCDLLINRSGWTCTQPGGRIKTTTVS

| Molecule | binding to FAM19A5 mutant M8 (FAM19A5 mutants M1 to M8 [1]) | binding to FAM19A5 mutant M4 (FAM19A5 mutants M1 to M8 [2]) | binding to FAM19A5 mutants M1-M3 and M5-M7 (FAM19A5 mutants M1 to M8 [3]) | wave I amplitude vs control animals (aged mice; general trend, results not statistically significant) | ABR threshold vs control animals (aged mice; one-month post administration) | ABR threshold vs control animals (aged mice; two-month post administration) | neurite growth in FAM19A5-treated neurons [4] |
| --- | --- | --- | --- | --- | --- | --- | --- |
| B1 | failed to bind | failed to bind | moderate to high binding | – | – | – | – |
| B2 | – | – | – | decreased wave I amplitude | significantly decreased | significantly decreased | less reduction in neurite growth and comparable to the neurons from the control group |
